B1: H1.4_L1 (antibody, human IgG1, kappa, V domains shown)
VH: EVQLVESGGGLVQPGGSLRLSCAASGFTFGSFGMHWVRQAPGKGLEWVSYISSGSSIIYYADSVKGRFTISRDNAKNSLYLQMNSLRAEDTAVYYCARGGRLVWSPDYWGQGTLVTVSS
VL: DIVMTQSPDSLAVSLGERATINCKSSQSLLNSGNQKNYLTWYQQKPGQPPKLLIYWASTRESGVPDRFTGSGSGTDFTLTISSLQAEDVAVYYCQNDYSYPFTFGSGTKLEIKR
notes: also called VH-S30G; Kabat 30G; copies: 2 + 2
B2: H1.8_L1 (antibody, human IgG1, kappa, V domains shown)
VH: EVQLVESGGGLVQPGGSLRLSCAASGFTFYSFGMHWVRQAPGKGLEWVSYISSGSSIIYYADSVKGRFTISRDNAKNSLYLQMNSLRAEDTAVYYCARGGRLVWSPDYWGQGTLVTVSS
VL: DIVMTQSPDSLAVSLGERATINCKSSQSLLNSGNQKNYLTWYQQKPGQPPKLLIYWASTRESGVPDRFTGSGSGTDFTLTISSLQAEDVAVYYCQNDYSYPFTFGSGTKLEIKR
notes: also called VH-S30Y; Kabat 30Y
B3: H1.13_L1 (antibody, human IgG1, kappa, V domains shown)
VH: EVQLVESGGGLVQPGGSLRLSCAASGFTFSVFGMHWVRQAPGKGLEWVSYISSGSSIIYYADSVKGRFTISRDNAKNSLYLQMNSLRAEDTAVYYCARGGRLVWSPDYWGQGTLVTVSS
VL: DIVMTQSPDSLAVSLGERATINCKSSQSLLNSGNQKNYLTWYQQKPGQPPKLLIYWASTRESGVPDRFTGSGSGTDFTLTISSLQAEDVAVYYCQNDYSYPFTFGSGTKLEIKR
notes: also called VH-S31V; Kabat 31V; copies: 2 + 2
B4: H1.7_L1 (antibody, human IgG1, kappa, V domains shown)
VH: EVQLVESGGGLVQPGGSLRLSCAASGFTFKSFGMHWVRQAPGKGLEWVSYISSGSSIIYYADSVKGRFTISRDNAKNSLYLQMNSLRAEDTAVYYCARGGRLVWSPDYWGQGTLVTVSS
VL: DIVMTQSPDSLAVSLGERATINCKSSQSLLNSGNQKNYLTWYQQKPGQPPKLLIYWASTRESGVPDRFTGSGSGTDFTLTISSLQAEDVAVYYCQNDYSYPFTFGSGTKLEIKR
notes: also called VH-S30K; Kabat 30K; copies: 2 + 2
B5: H1.5_L1 (antibody, human IgG1, kappa, V domains shown)
VH: EVQLVESGGGLVQPGGSLRLSCAASGFTFVSFGMHWVRQAPGKGLEWVSYISSGSSIIYYADSVKGRFTISRDNAKNSLYLQMNSLRAEDTAVYYCARGGRLVWSPDYWGQGTLVTVSS
VL: DIVMTQSPDSLAVSLGERATINCKSSQSLLNSGNQKNYLTWYQQKPGQPPKLLIYWASTRESGVPDRFTGSGSGTDFTLTISSLQAEDVAVYYCQNDYSYPFTFGSGTKLEIKR
notes: also called VH-S30V; Kabat 30V; copies: 2 + 2
B6: H1.14_L1 (antibody, human IgG1, kappa, V domains shown)
VH: EVQLVESGGGLVQPGGSLRLSCAASGFTFSHFGMHWVRQAPGKGLEWVSYISSGSSIIYYADSVKGRFTISRDNAKNSLYLQMNSLRAEDTAVYYCARGGRLVWSPDYWGQGTLVTVSS
VL: DIVMTQSPDSLAVSLGERATINCKSSQSLLNSGNQKNYLTWYQQKPGQPPKLLIYWASTRESGVPDRFTGSGSGTDFTLTISSLQAEDVAVYYCQNDYSYPFTFGSGTKLEIKR
notes: also called VH-S31H; Kabat 31H; copies: 2 + 2
B7: H1.17_L1 (antibody, human IgG1, kappa, V domains shown)
VH: EVQLVESGGGLVQPGGSLRLSCAASGFTFSYFGMHWVRQAPGKGLEWVSYISSGSSIIYYADSVKGRFTISRDNAKNSLYLQMNSLRAEDTAVYYCARGGRLVWSPDYWGQGTLVTVSS
VL: DIVMTQSPDSLAVSLGERATINCKSSQSLLNSGNQKNYLTWYQQKPGQPPKLLIYWASTRESGVPDRFTGSGSGTDFTLTISSLQAEDVAVYYCQNDYSYPFTFGSGTKLEIKR
notes: also called VH-S31Y; Kabat 31Y; copies: 2 + 2
B8: H1.9_L1 (antibody, human IgG1, kappa, V domains shown)
VH: EVQLVESGGGLVQPGGSLRLSCAASGFTFSTFGMHWVRQAPGKGLEWVSYISSGSSIIYYADSVKGRFTISRDNAKNSLYLQMNSLRAEDTAVYYCARGGRLVWSPDYWGQGTLVTVSS
VL: DIVMTQSPDSLAVSLGERATINCKSSQSLLNSGNQKNYLTWYQQKPGQPPKLLIYWASTRESGVPDRFTGSGSGTDFTLTISSLQAEDVAVYYCQNDYSYPFTFGSGTKLEIKR
notes: also called VH-S31T; Kabat 31T; copies: 2 + 2
B9: H1.12_L1 (antibody, human IgG1, kappa, V domains shown)
VH: EVQLVESGGGLVQPGGSLRLSCAASGFTFSGFGMHWVRQAPGKGLEWVSYISSGSSIIYYADSVKGRFTISRDNAKNSLYLQMNSLRAEDTAVYYCARGGRLVWSPDYWGQGTLVTVSS
VL: DIVMTQSPDSLAVSLGERATINCKSSQSLLNSGNQKNYLTWYQQKPGQPPKLLIYWASTRESGVPDRFTGSGSGTDFTLTISSLQAEDVAVYYCQNDYSYPFTFGSGTKLEIKR
notes: also called VH-S31G; Kabat 31G; copies: 2 + 2
B10: H1.11_L1 (antibody, human IgG1, kappa, V domains shown)
VH: EVQLVESGGGLVQPGGSLRLSCAASGFTFSQFGMHWVRQAPGKGLEWVSYISSGSSIIYYADSVKGRFTISRDNAKNSLYLQMNSLRAEDTAVYYCARGGRLVWSPDYWGQGTLVTVSS
VL: DIVMTQSPDSLAVSLGERATINCKSSQSLLNSGNQKNYLTWYQQKPGQPPKLLIYWASTRESGVPDRFTGSGSGTDFTLTISSLQAEDVAVYYCQNDYSYPFTFGSGTKLEIKR
notes: also called VH-S31Q; Kabat 31Q; copies: 2 + 2
B11: H1.15_L1 (antibody, human IgG1, kappa, V domains shown)
VH: EVQLVESGGGLVQPGGSLRLSCAASGFTFSDFGMHWVRQAPGKGLEWVSYISSGSSIIYYADSVKGRFTISRDNAKNSLYLQMNSLRAEDTAVYYCARGGRLVWSPDYWGQGTLVTVSS
VL: DIVMTQSPDSLAVSLGERATINCKSSQSLLNSGNQKNYLTWYQQKPGQPPKLLIYWASTRESGVPDRFTGSGSGTDFTLTISSLQAEDVAVYYCQNDYSYPFTFGSGTKLEIKR
notes: also called VH-S31D; Kabat 31D; copies: 2 + 2
B12: H1.10_L1 (antibody, human IgG1, kappa, V domains shown)
VH: EVQLVESGGGLVQPGGSLRLSCAASGFTFSAFGMHWVRQAPGKGLEWVSYISSGSSIIYYADSVKGRFTISRDNAKNSLYLQMNSLRAEDTAVYYCARGGRLVWSPDYWGQGTLVTVSS
VL: DIVMTQSPDSLAVSLGERATINCKSSQSLLNSGNQKNYLTWYQQKPGQPPKLLIYWASTRESGVPDRFTGSGSGTDFTLTISSLQAEDVAVYYCQNDYSYPFTFGSGTKLEIKR
notes: also called VH-S31A; Kabat 31A; copies: 2 + 2
B13: H1.6_L1 (antibody, human IgG1, kappa, V domains shown)
VH: EVQLVESGGGLVQPGGSLRLSCAASGFTFHSFGMHWVRQAPGKGLEWVSYISSGSSIIYYADSVKGRFTISRDNAKNSLYLQMNSLRAEDTAVYYCARGGRLVWSPDYWGQGTLVTVSS
VL: DIVMTQSPDSLAVSLGERATINCKSSQSLLNSGNQKNYLTWYQQKPGQPPKLLIYWASTRESGVPDRFTGSGSGTDFTLTISSLQAEDVAVYYCQNDYSYPFTFGSGTKLEIKR
notes: also called VH-S30H; Kabat 30H; copies: 2 + 2
B14: H1.16_L1 (antibody, human IgG1, kappa, V domains shown)
VH: EVQLVESGGGLVQPGGSLRLSCAASGFTFSKFGMHWVRQAPGKGLEWVSYISSGSSIIYYADSVKGRFTISRDNAKNSLYLQMNSLRAEDTAVYYCARGGRLVWSPDYWGQGTLVTVSS
VL: DIVMTQSPDSLAVSLGERATINCKSSQSLLNSGNQKNYLTWYQQKPGQPPKLLIYWASTRESGVPDRFTGSGSGTDFTLTISSLQAEDVAVYYCQNDYSYPFTFGSGTKLEIKR
notes: also called VH-S31K; Kabat 31K; copies: 2 + 2

Each binder was assayed against T1, human PD-1-His (human, UniProt Q15116 25-167, limits assumed) (assay: Octet).
T1 construct: Antigen of the Octet assays; not shown: His tag
T1 sequence (Q15116 25-167 limits assumed): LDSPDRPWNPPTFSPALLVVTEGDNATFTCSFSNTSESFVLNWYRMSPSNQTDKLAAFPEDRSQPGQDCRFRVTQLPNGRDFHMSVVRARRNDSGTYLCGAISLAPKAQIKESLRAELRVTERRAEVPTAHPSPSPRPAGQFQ

Point of comparison: B2, Kd 51.3 nM. Against it:
- B1 — 1.5-fold lower, 34 nM
- B3 — within 1.5-fold, 50.2 nM
- B4 — within 1.5-fold, 52.5 nM
- B5 — within 1.5-fold, 37.4 nM
- B6 — within 1.5-fold, 45.8 nM
- B7 — within 1.5-fold, 50.4 nM
- B8 — within 1.5-fold, 46.9 nM
- B9 — within 1.5-fold, 44.2 nM
- B10 — within 1.5-fold, 36.8 nM
- B11 — within 1.5-fold, 40 nM
- B12 — within 1.5-fold, 36.9 nM
- B13 — within 1.5-fold, 48.5 nM
- B14 — within 1.5-fold, 47.1 nM

Point of comparison: B5, koff 0.00475 s⁻¹. Against it:
- B1 — within 1.5-fold, 0.00422 s⁻¹
- B2 — within 1.5-fold, 0.00534 s⁻¹
- B3 — within 1.5-fold, 0.00634 s⁻¹
- B4 — within 1.5-fold, 0.00545 s⁻¹
- B6 — within 1.5-fold, 0.00546 s⁻¹
- B7 — within 1.5-fold, 0.00534 s⁻¹
- B8 — within 1.5-fold, 0.00567 s⁻¹
- B9 — within 1.5-fold, 0.00537 s⁻¹
- B10 — within 1.5-fold, 0.00454 s⁻¹
- B11 — within 1.5-fold, 0.00557 s⁻¹
- B12 — within 1.5-fold, 0.00425 s⁻¹
- B13 — within 1.5-fold, 0.00529 s⁻¹
- B14 — within 1.5-fold, 0.00514 s⁻¹

Point of comparison: B4, kon 104000 M⁻¹ s⁻¹. Against it:
- B1 — within 1.5-fold, 124000 M⁻¹ s⁻¹
- B2 — the same, 104000 M⁻¹ s⁻¹
- B3 — within 1.5-fold, 126000 M⁻¹ s⁻¹
- B5 — within 1.5-fold, 127000 M⁻¹ s⁻¹
- B6 — within 1.5-fold, 119000 M⁻¹ s⁻¹
- B7 — within 1.5-fold, 106000 M⁻¹ s⁻¹
- B8 — within 1.5-fold, 121000 M⁻¹ s⁻¹
- B9 — within 1.5-fold, 122000 M⁻¹ s⁻¹
- B10 — within 1.5-fold, 123000 M⁻¹ s⁻¹
- B11 — within 1.5-fold, 139000 M⁻¹ s⁻¹
- B12 — within 1.5-fold, 115000 M⁻¹ s⁻¹
- B13 — within 1.5-fold, 109000 M⁻¹ s⁻¹
- B14 — within 1.5-fold, 109000 M⁻¹ s⁻¹
